Reference: the DeepSol protein solubility set

Experiment: soluble on expression in E. coli; label from the status in PepcDB or PDB records
In the case of “MGSDKIHHHHHHMSNVKTAEFKRPQLSLPHSADKLLLHSCCAPCSGEVMEAITASGIDYTIFFYNPNIHPQREYLIRKEENIRFAEQHNVPFIDADYDSDNWFERAKGMEWEPERGIRCTMCFDMRFERTALYAAENGFSVISSSLGISRWKNMQQINECGQNAAQKYPGVTYWDYNWRKGGGSARMIEISKREHFYQQEYCGCIYSLRDSNKHRKSQGRDIIRIGKLYYGDEAE”, the “soluble on expression in E. coli” value is reported as “not soluble”.
With “MTNRYVVIFTVGPVQSFIASARKTEDFWSGSYILSHLVREAIKRFYQFDANCEMIYPLVTEKELRSPSQRDVHIASIPNRLTVIMEGTEEEVCGWLREAEQDVCNVFLDFCFQAVRRVFPHLTDHEQELLERMVEQQVRSFLEIYWVAEPYEPSMSFREVRERAERRLGALKNEKHYIPVSQQGLVCSVCKEREALRLEEIGEFDHYGEIKKKTMSLWQRRAVKFQGTGGDEEDDRRAGRIKDNEFLCGICLGKRAARDYFADLFGTSFPSFPSVLDIGQGDYYAVLLMDGDDMGKWFSGERKDEYSRTSQKLARFAKETVPWIVQERCKGKLVYAGGDDVLAFVPVETALKAAEMLRLAFADERQGLGSGATASFGVVIAHKKAPLQHVLNAARALEQKAKRYYNDKTAQRKDALALAVHTRSGEISEAVLPWIVGEKMVSKLLEEWLGLLKTSLSPNFIFHFASAFAPLLHEKDCPKWENRDMLATELRRLLRRSVKEGSCLDAQDIARYTSTLLVLHEAVRSSYDFLHLLKMLTFFKRSKGRG” the “soluble on expression in E. coli” value was “not soluble”.
For “DIGCYTLGALPPYEAINSCVDMGASITMAKGAADAGLFPAVSVIGDSTFTHSGITGLLDAINENSNITVIISDNESISMTGGQHSSAYGKVEAICRGIGVDPDHIRELLPVPKNHDELCSIIREEINYEGVSVIIPRRVCIQKHARDAKAAKRAKA”, the “soluble on expression in E. coli” value was “not soluble”.
For “LKLPDMRDVVGQPEARFAAEVAAAGGHHMLMIGPPGSGKSMIAERIPSLLPELSPQQMIEATAVHSVVGRTFSGPVSRAPFISPHHNVSKAALLGGGSGSPLPGAISLAHHGVLFLDEVSEIPASILDSLRTPLEYGSIRIIRSRHDVTFPAQFQLILAANPCRCG”, the “soluble on expression in E. coli” value was “not soluble”.
For “MGSDKIHHHHHHTEMEPKFTEPVNINGEDYYKALREYKKSDHPIVFGWYSEWTGTGTNMNNQLRGIPDSMDIVSLWGGAFNLTEAQKSDLKEVREKKGLRVLYCQHITDIGRSHTPASVENDFIVDGVQYNSKDEAMAAYWGWYGNYGDTSEEGQEKAIRKYARVIIDSINKYNYDGFDIDFEPNFGYSGNLSGNSDRMHIFLDELSKEFGPKSGTGRILMVDGEPQTLNKESGPLLDYYVVQAYYCRSDEGYSDALDGRFDRLLNKFGSIEDEATILSKTVWCEDFEKHKGDGGPEFTTRDGIVTYSLKGMAMYYRPGVDARIGGVGAYRFNLCRPVNDYFFMREVIQVLNPANH”, the “soluble on expression in E. coli” value was “not soluble”.
In the case of “MYQDLIRNELNEAAETLANFLKDDANIHAIQRAAVLLADSFKAGGKVLSCGNGGSHCDAMHFAEELTGRYRENRPGYPAIAISDVSHISCVGNDFGFNDIFSRYVEAVGREGDVLLGISTSGNSANVIKAIAAAREKGMKVITLTGKDGGKMAGTADIEIRVPHFGYADRIQEIHIKVIHILIQLIEKEMVK”, the “soluble on expression in E. coli” value is reported as “soluble”.
With “GSHMIEPNVISVRLFKRKVGGLGFLVKERVSKPPVIISDLIRGGAAEQSGLIQAGDIILAVNDRPLVDLSYDSALEVLRGIASETHVVLILRGPEGFTTHLETTFTGDGTPKTIRVTQPLGPPTKAV” the “soluble on expression in E. coli” value was “soluble”.
In the case of “MSKPLPLVTRQGDRIVIVNGLRTPFAKQATAYHGVPAVDLGKIVVSELLARSGISSELIDQLVFGQVVQMPEAPNIAREIVLGTGMSVHTDAYSVSRACATSFQAVANVAESIIAGSVDIAIAGGADSSSVLPIGVSKALARTLVDANKARSLSQKLKLFSRLRLRDLLPVAPAVAEYSTGLRMGDTAEQMAKTYGISREDQDALALRSHQLAAEAWQQGWLHDEVMTAYIPPYREAIIEDNNIRKDSTLAQYAKLRPAFDRQHGSVTAANSTPLTDGAAAVLMMSESKAKALGLPPLGYLRSFAFSAIDVWQDMLLGPSYATPLALDRAGITLADLTLIDMHEAFAAQTLANLKMFASDTFAREKLGRSQAIGEVDMSKFNVLGGSIAYGHPFAATGARMITQTLNELRRRGGGLGLTTACAAGGLGAAMILEVE”, the “soluble on expression in E. coli” value is reported as “not soluble”.
In the case of “MSDLADNAIDAARQENVARILEAAERLFRHYGYAKTNVADIARELDMSPANIYRFFASKTEIHQTLCLRMLGASYQQALEIAHLPLSASERLRRYALGQHKLTVETMLDEQKVHEMVVVAIERDWHVIEKHISRLDDLLAGIIREGIEAGEFADVDPAVAARCFGASLVTLCHPQIVAQCLAKENRATPDELVEFAIRALKK”, the “soluble on expression in E. coli” value is reported as “soluble”.
In the case of “MNILLFGKTGQVGWELQRSLAPVGNLIALDVHSKEFCGDFSNPKGVAETVRKLRPDVIVNAAAHTAVDKAESEPELAQLLNATSVEAIAKAANETGAWVVHYSTDYVFPGTGDIPWQETDATSPLNVYGKTKLAGEKALQDNCPKHLIFRTSWVYAGKGNNFAKTMLRLAKERQTLSVINDQYGAPTGAELLADCTAHAIRVALNKPEVAGLYHLVAGGTTTWHDYAALVFDEARKAGITLALTELNAVPTSAYPTPASRPGNSRLNTEKFQRNFDLILPQWELGVKRMLTEMFTTTTI”, the “soluble on expression in E. coli” value is reported as “soluble”.
In the case of “MRISKMLVTELNIYPLKSARGIALKESAVSAEGLPGDRRAMLTDPSGHFITQRELPAIATVLARHEDGGMALSRERSGEIFARPSGQRMDVAVWKSIVSANIADDETNDTLSAWLGREVKLVFFDDAAKRIASLEWTGNETPVTFADGYQILVTTTASLAALNDNMRGNGEDAVGMERFRPNIVLETEEAWAEDRWAAIEIGGIRFDLVKPCARCIMTTQDQMTGSRDVPSPMKAMGRIRMSGDRRVPGPLFGWNVTPRGEGRLSVGDVARVVEERPEGWAIKRR”, the “soluble on expression in E. coli” value is reported as “soluble”.
With “MNLVHTPNANRLHIALFGKRNSGKSSLINALTGQDTALVSDTPGTTTDSVQKAMEIHGIGPCLFIDTPGFDDEGELGNRRIERTWKAVEKTDIALLLCAGGGSAEETGEPDFTEELHWLEQLKAKNIPTILLINKADIRKNTASLAIRIKETFGSQPIPVSAKEKTGVELIRQAILEKLPEDFDQQSITGSLVTEGDLVLLVMPQDIQAPKGRLILPQVQTMRELLDKKCLIMSCTTDKLQETLQALSRPPKLIITDSQVFKTVYEQKPEESRLTSFSVLFAGYKGDIRYYVKSASAIGSLTESSRVLIAEACTHAPLSEDIGRVKLPHLLRKRIGEKLSIDIVAGTDFPQDLTPYSLVIHCGACMFNRKYVLSRIERARLQNVPMTNYGVAIAFLNGILNQIEYLEHHHHHH” the “soluble on expression in E. coli” value was “not soluble”.
With “MGADLRYNMEITLEEAFAGKTAQIRVPTSITCDVCSGSGAKPGTQPKTCATCQGSGRVRAAQGFFSVERTCPTCHGRGQTISDPCGKCHGQGRVTEERSLSVNIPSGIEDGTRIRLQGEGEAGMRGGPAGDLYIFLSVRPHEFFQRDGADLYCTVPISMTTAALGGTFDVTTLDGTKSRVTVPEGTQPGKQFRLKGKGMPVLRSAQTGDLYIQIQIETPQKLSKRQRELLQEFEQLSSKENNPLEHHHHHH” the “soluble on expression in E. coli” value was “soluble”.
For “MTKISKIIDELNNQQADAAWITTPLNVYYFTGYRSEPHERLFALLIKKDGKQVLFCPKMEVEEVKASPFTGEIVGYLDTENPFSLYPQTINKLLIESEHLTVARQKQLISGFNVNSFGDVDLTIKQLRNIKSEDEISKIRKAAELADKCIEIGVSYLKEGVTECEVVNHIEQTIKQYGVNEMSFDTMVLFGDHAASPHGTPGDRRLKSNEYVLFDLGVIYEHYCSDMTRTIKFGEPSKEAQEIYNIVLEAETSAIQAIKPGIPLKDIDHIARNIISEKGYGEYFPHRLGHGLGLQEHEYQDVSSTNSNLLEAGMVITIEPGIYVPGVAGVRIEDDILVTNEGYEVLTHYEK”, the “soluble on expression in E. coli” value was “not soluble”.
With “MSLESAVKAESAGKSVAASLKARLEKTYSAQDLKVLSVSETPVKGIYEVVVSGRQIIYTDAEGGYMFVGELINIDTRKNLTEERAADLNKIDFASLPLDKAIKEVRGNGKLKVAVFSDPDCPFCKRLEHEFEKMTDVTVYSFMMPIAGLHPDAARKAQILWCQPDRAKAWTDWMRKGKFPVGGSICDNPVAETTSLGEQFGFNGTPTLVFPNGRTQSGYSPMPQLEEIIRKNQQEGHHHHHH” the “soluble on expression in E. coli” value was “soluble”.
In the case of “MGCSSSALNKAGDSSRFPSVTSNEHFSTAEESESCFAQPKPHALGRESTVDGNVQRESRPPLQKLKVSAEPTANGVKPLQEQPLAKDVAPGRDATDQSGSTEKTQPGEGLEESGPPQPGGKEDAPAAEGKKKDAGAGTEAESLKGNAEAQPLGPEAKGQPLQAAVEKDSLRAVEVTENPQTAAEMKPLGTTENVLTLQIAGELQPQGTVGKDEQAPLLETISKENESPEILEGSQFVETAEEQQLQATLGKEEQPQLLERIPKENVTPEVLDRSQLVEKPVMNDPFHKTPEGPGNMEQIQPEGIVGSMEHPARNVEAGAYVEMIRNIHTNEEDQRIEGETGEKVETDMENEKVSEGAETKEEETGEVVDLSAAT”, the “soluble on expression in E. coli” value is reported as “soluble”.
In the case of “MNWHPAACKISAKGGYLRVIIDASNVAHSRKNDEEKPCIENILSAAEELEKLGYEPVIIADASLRHEIDDKEQFRKLLEEGKFQQVPSGTSADHFILKMAEEEDAKILSNDVFRDYKDEFQDINSRRIPYTFREDKILIGTSGKPKKVKNILQKICNEALREFERKRIDAYKVKRGKKLSGIAIAKEAIDRISRSQEEGLEPRLEGIFMKLPLFERFMSMVEEVERTSNYIIFVLVHPKDYRDAVKYAGNIAVTVGDRLKLEHAPLVAVRNDLFLKPGTFELNIMYSEDVMEEAPYNVNITINDHDYSFVKKNSRNIASTLAARIGSWRFPIVSVKPSMLLEKPGEFEVVLEKGGNDLEHHHHHH”, the “soluble on expression in E. coli” value is reported as “soluble”.
In the case of “MGSDKIHHHHHHMKLIINADDFGFTRAINYGIIDAHNLGVLTSTTLMVTMPAFEHAVDLSKKTPTLGIGLHLNLTLGKPLTNGATLVNEDGELIKPKFTTPEYPYNEEEVYQEFKAQYHRFTEFMKKKPSHLDSHLFSTDIYPVVTSAAKRLAEEIGIPLRNHDTKGFEHVEFMWEKPLEIPYGEYDNLDYIYDNAASILCYDYVEIMTHPGYLDTFILENSTFSTPRANELESLISPRMRQFLNENNVELISYHDIPKK”, the “soluble on expression in E. coli” value is reported as “not soluble”.
For “AHHHHHHGSARITEEQRRKLAQDALEYHRNNFPGNGKIEVIPKVPLRDFYDLSLAYTPGVAEPCKVIAKKGNYEDYTIIPNTVAVVTDGSAILGLGNIGVLAGMPVMEGKCVLFKALAGIDAFPILIDTQDVEKIVETIKLISKGFGGINLEDISAPRCFEIEMRLKRELDIPVFHDDQHGTAVVTLAGLINALKLVGKKFNEIKVAISGAGAAGIAIAKLLHHVGVKEILLVDRAGIIYEGRKENMNPYKEEVARFNIHGVQGDLAKAMEGADVFIGVSVGGIVKPWMIKKMADDPIVFAMANPIPEIMPEDAKKAGAKIVATGRSDYPNQINNVLGFPGIFRGALDVRATDITLNMNIAAAEAIASVVSDEELSEDYIIPSPLHPDVYPKEARAVAEQAIRDGVARRKLSGEWVEEHTRKLREFYAALIEPLNERRKQYIT”, the “soluble on expression in E. coli” value was “soluble”.
For “MEQRTRLALLKEIAEFLNEETEMYSMTQGALKYLIEGSNFTTGWIFFINSVGEHELVSHVALPQSLTADHCHYIKDGSCWCVKAFNQRRLMKASNIVNCSRINLASKAFPSQNDNITHHATVPLKSGQEQFGILNVASPNTEIYSDEDLELLESVAFQLGSAIKRIYLTDREKEAAKINERNRLARDLHDSVNQMLFSVKLTAHAAYGMSNESIAKQAFKTIEKTSQNAVNEMRALIWQLKPVGLEQGLIHALTAYSKLMHIQLNVNVEGLIDLSNEIEENIYRALQECINNVKKHADTNKMDLTLKQMNDILYIDVIDYGQGFEIDNVQIASSHGINNIKQRVKLLRGKVTFHSQPTKGTQIQFTIPIK”, the “soluble on expression in E. coli” value was “not soluble”.
